Results reported in patent US20230002500A1 (BEIGENE, published 2023).

T1: recombinant OX40 protein with a His tag (Cat: 10481-H08H, Sino Biological) (UniProt P43489 29-216)
T1 construct: Bought protein; not shown: His tag
T1 sequence (looked up): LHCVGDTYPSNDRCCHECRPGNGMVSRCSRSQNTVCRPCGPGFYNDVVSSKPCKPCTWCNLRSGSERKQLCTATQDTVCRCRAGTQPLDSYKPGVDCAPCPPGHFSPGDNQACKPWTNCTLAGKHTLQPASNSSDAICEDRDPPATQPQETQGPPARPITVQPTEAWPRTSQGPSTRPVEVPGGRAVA

T2: full-length human OX40 expressed on HuT78 cells (HuT78/OX40) (human, UniProt P43489 29-277)
T2 sequence: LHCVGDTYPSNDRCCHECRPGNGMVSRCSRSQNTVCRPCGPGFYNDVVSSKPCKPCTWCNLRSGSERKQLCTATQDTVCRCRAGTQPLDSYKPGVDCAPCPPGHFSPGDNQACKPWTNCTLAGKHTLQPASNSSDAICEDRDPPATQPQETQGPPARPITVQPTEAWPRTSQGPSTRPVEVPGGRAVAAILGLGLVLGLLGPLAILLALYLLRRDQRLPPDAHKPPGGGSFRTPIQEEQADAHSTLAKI


Key:
[1] = target: T1, recombinant OX40 protein with a His tag …; experiment: SPR (BIAcore T-200), antibody captured by anti-human IgG, OX40-His flowed; Test 1
From the text: (§1) The anti-OX40 antibodies were characterized for their binding kinetics and affinity by SPR assays using BIAcore™ T-200 (GE Life Sciences). Briefly, anti-human IgG antibody was immobilized on an activated CM5 biosensor chip (Cat: BR100530, GE Life Sciences). An antibody with human IgG Fc region was flowed over the chip surface and captured by anti-human IgG antibody. Then a serial dilution of recombinant OX40 protein with a His tag (Cat: 10481-H08H, Sino Biological) was flowed over the chip surface and changes in surface plasmon resonance signals were analyzed to calculate the association rates (ka) and dissociation rates (kd) by using the one-to-one Langmuir binding model (BIA Evaluation Software, GE Life Sciences). The equilibrium dissociation constant (KD) was calculated as the ratio kd/ka.

[2] = target: T1, recombinant OX40 protein with a His tag …; experiment: Biacore SPR (set-up not named on the sheet; by Example 4 antibody captured, OX40-His flowed)
[3] = target: T1, recombinant OX40 protein with a His tag …; experiment: SPR (BIAcore T-200), antibody captured by anti-human IgG, OX40-His flowed; Test 2
From the text: as §1

[4] = target: T2, full-length human OX40 expressed on …; experiment: cell-based or functional assay

koff [1] | kon [1] | koff [2] | kon [2] | koff [3] | kon [3] | ADCC, LDH release, NK92MI/CD16V effector cells and HuT78/OX40 target cells, EC50 [4] | IL-2 production of HuT78/OX40 cells co-cultured with HEK293/OS8Low-FcγRI cells (ELISA), EC50 [4] | Binder
0.00161 s⁻¹ | 161000 M⁻¹ s⁻¹ |  |  |  |  |  |  | 445-3 IgG4 (445-3 with the Fc domain of human IgG4 with S228P and R409K mutations) (antibody, V domains shown) VH: QVQLVQSGAEVKKPGSSVKVSCKASGYKFTSYIIHWVRQAPGQGLEWMGYINPYNEGTRYNQKFQGRVTLTADKSTSTAYMELSSLRSEDTAVYYCARGYYGSSYAMDYWGQGTTVTVSS VL: DIQMTQSPSSLSASVGDRVTITCRASQGISNYLNWYQQKPDGAIKLLIYDASTLYSGVPSRFSGSGSGTDFTLTISSLQPEDFATYYCQQYSKLPYTFGGGTKVEIK
0.00167 s⁻¹ | 182000 M⁻¹ s⁻¹ | 0.00148 s⁻¹ | 174000 M⁻¹ s⁻¹ | 0.00159 s⁻¹ | 163000 M⁻¹ s⁻¹ | 27 ng/mL | 0.06 ng/mL | humanized anti-OX40 monoclonal antibody 445-3 (antibody, V domains shown, Human IgG1 wild type format) VH: QVQLVQSGAEVKKPGSSVKVSCKASGYKFTSYIIHWVRQAPGQGLEWMGYINPYNEGTRYNQKFQGRVTLTADKSTSTAYMELSSLRSEDTAVYYCARGYYGSSYAMDYWGQGTTVTVSS VL: DIQMTQSPSSLSASVGDRVTITCRASQGISNYLNWYQQKPDGAIKLLIYDASTLYSGVPSRFSGSGSGTDFTLTISSLQPEDFATYYCQQYSKLPYTFGGGTKVEIK
